PMC8368996 (2021)
Where two headings read alike, the source gives them in different places. Ends that are not written are not given here. Oregon Green 488 maleimide = Oregon Green 488 maleimide fluorescent label attached to the N-terminal cysteine

B1: NEDD4L WW4 domain (domain or fragment)
chain: GPLPPGWEERIHLDGRTFYIDHNSKITQWEDPRL
B2: NEDD4L WW2 domain (domain or fragment)
chain: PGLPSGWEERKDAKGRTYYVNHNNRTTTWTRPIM
B3: NEDD4L WW3 domain (domain or fragment)
chain: KVTQSFLPPGWEMRIAPNGRPFFIDHNTKTTTWEDPRLKFPVHMRSK
B4: NEDD4L WW1 domain (domain or fragment)
chain: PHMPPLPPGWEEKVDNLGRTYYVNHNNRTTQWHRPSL

Key:
Experiment in all cases: FP
NEDD4L WW3 domain [1] = target: B3
NEDD4L WW4 domain = target: B1
NEDD4L WW1 domain = target: B4
Chain of NEDD4L WW1 domain (chain, as listed by the source): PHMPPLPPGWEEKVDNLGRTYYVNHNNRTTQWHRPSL

NEDD4L WW3 domain [2] = target: B3; remark: listed apart in the source
NEDD4L WW2 domain = target: B2
Chain of NEDD4L WW2 domain (Q96PU5 385-418): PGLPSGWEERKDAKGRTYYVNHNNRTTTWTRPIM

PPxYc [3] = target: PPxYc
PPxYc [4] = target: PPxYc; remark: listed apart in the source
Target sequence in this assay (Q96PU5 385-418): as above

PPxYc [5] = target: PPxYc; remark: listed apart in the source
PPxYc [6] = target: PPxYc; remark: listed apart in the source
Target sequence in this assay (Q96PU5 other isoform, or with tags, fused parts or gaps): as the sequence (chain, as listed by the source) above

Binder	Kd (NEDD4L WW3 domain [1]) [µM]	Kd (NEDD4L WW4 domain) [µM]	Kd (NEDD4L WW1 domain) [µM]	Kd (NEDD4L WW2 domain) [µM]	also measured
C(Oregon Green 488 maleimide)MQNNEEPPTYEEAKV [AMOT PPxY1 L106P mutant peptide]	6.7	–	–	–	–
C(Oregon Green 488 maleimide)LMRYQHPPEYGAARP [AMOT PPxY3 peptide (residues 278-292), Oregon Green 488-labelled]	–	> 400	> 400	280	Kd (NEDD4L WW3 domain [2]): 100 µM
C(Oregon Green 488 maleimide)MQNNEELPTYEEAKV [AMOT PPxY1 peptide (residues 100-114), Oregon Green 488-labelled]	6.3	60	180	34	–
B1	–	–	–	–	Kd (PPxYc [3]): > 400 µM
B2	–	–	–	–	Kd (PPxYc [4]): > 800 µM
B3	–	–	–	–	Kd (PPxYc [5]): > 250 µM
C(Oregon Green 488 maleimide)MEHRGPPPEYPFKGM [AMOT PPxY2 peptide (residues 233-247), Oregon Green 488-labelled]	–	210	49	30	Kd (NEDD4L WW3 domain [2]): 28 µM
C(Oregon Green 488 maleimide)MEHRGPLPEYPFKGM [AMOT PPxY2 P239L mutant peptide]	78	–	–	–	–
B4	–	–	–	–	Kd (PPxYc [6]): > 400 µM
